# According to the domain aggregation screens of Martell et al. (2025):
# Test: soluble fraction after stress (log2 fold change); higher = more stays soluble; pooled small domains, quantitative proteomics
# Conditions: stress: 50 degC
# How it was run: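 Quantitative proteomics served as the high-throughput read-out for pooled custom libraries of small protein domains. Each was stressed at 50°C. Aggregation propensity is expressed as the base-two log fold change in soluble protein after stress. A higher value means a larger share of the protein remains in solution.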
row,Sequence,soluble fraction (log2)
1,HMKQISNTDELETMVKKIIDDNEEQVNKYRGGNEKLFGWFVGQAMKNTGGTANPKVVNEILSKLLK,0.0976
2,HMGKASNEVYEVISSKIRTGEWAPGYKLPSEPTLAEEFGVSRATVREALQELISRGRIKREQGRGTYVLH,0.161
3,HMTEKIEWYKEVLELEPNSKVFFPLARMLAEEQRFDEAVAVLEHGLERHGEFLEARLFFIELLHET,-3.69
4,HMGDTIGEQKAKEIALEHAGLKSSDVTFIRAVLEYDDRNWEYDVEFYDADTYTEYDYEIDAHTGKILSFDH,0.0993
5,HMINEVVSLRDVPSFIGKAKRDVIRIAEENNLKIKINGNGYVKEQTPNPGNKYKSNQEIKVFLEPG,0.0894
6,HMVEAIDQALIEKQIQAVLQENSAAVKKYQAGKTEVLAFLIGQSMRKIAKKVDANLVKNILLEQLKNK,0.0542
7,HMHVLAVDEALHKLTELNELHAKIVEMRFFSGMTVQEVADELGVSKRKIESEWTMIKAWLRKELN,-0.665
8,HMQQKNWIVRDGDGKIYGPFTTEQVLVQIDRGYFVGGEEVALYPGGRWIAISGAPEFYDRLLDALAMEG,-0.402
9,HMQIDRLFDIVYTLLRKKSATAAELAERFGVSKRTILRDIETLSVAGIPILTSPGKGGGVSISSSF,-0.881
10,HMLLLHINQMGVTEFSQLELNHVRSWLANLQIKGAARSSITRRVVSVRAFTYWGAKNGWLASDIGRDLVAP,-0.277
11,HMKNKVTVPKVEGMDKEEAIQALNEVGLGYKAVMQSSDSVAEGKVISQGTAAGKKVDKNTQIIITVSGG,0.00222
12,HMSEEELETSGLVKRSAKGNLYDIFRHRVMVPIIDVRGAIIAFGGRVLDDSKPKYINSPETMVY,0.0208
13,HMHYKLIIFENHTKSTSLDITPEQARQILGVTDYTPEQYEILAEITNRPASYFMDDLVDYYVD,-2.39
14,HMEPEWVINTDGSNLNEILAIDEVDSRKTFSNDLQEVYRTFGIEAARQILVQEIDAVIESSGA,0.199
15,HMAEPSTSYTQFMDQAKEGKIKRVDVQGRTLTVTPTEGATYKITAPGDLWMVEDLRKAGVQVYGQP,0.207
16,HMQKIENYDQFVQAFKRLSGLDLKLYKENQMKRRINNFINNHGFKENYDQFFQAITGNKELYNAFFKHLTI,-0.172
17,HMGKSETALELIKRGHRLIADDAVEITRIGSTLSGTAPELIRNYLEVRGVGVIDVEKLFGVGAVQDSTQI,0.0401
18,HMYPMQNYSTIIGVIELRQQSVGYATTQKRYGIGSSTVTLIMKRFKELGLTLEELRAMPPKAVEVAFYPPE,-1.11
19,HMEWLENIKKLKKEKGLTNESLSEKSGISVGTLNKLLSGATTDPKLSTLRPLADALEVSLDELLAI,0.166
20,HMVSAEQNTLEFIKENVKEDVIEDDIEFYKSLLEDWSVEVDNSSKLLDPGNNNSLLAVIAYSIENEL,-0.0399
21,HMLSDFHLNHDSIVNHTVQKKETIFSLSKKYGLSINEIIKANPGIQIDKLKRRSILIIPLRKK,-1.9
22,HMAPLAVIFPEPWRGMIAPEKLEGLTQALSLNPRPGYQHDPTRRYGVSLDGLDVRFTIDGDTLTVVEVVT,-0.635
23,HMDAVTPVLSRIRDARFKRMVLPGDEIEISVTLIDTIGKFFNLSGQIRNKDKISLTVNFALALV,-0.0104
24,HMVGQIISNARKQEKMTQSELAEKVGTNKTYISRIEKGVIEPGVGLFFRIIDALGLKIEIVKP,-1.25
25,HMTLGPKQMGEAIIKNLKEKTGKSLEEWSQRILIHELTDKKEIIDFLKNDNGLGHFQALKIFEHLNGK,-0.02

row,Sequence,soluble fraction (log2)
1,HMVLLGAAIRELRIQKGITIEELAEMSGLSTGLISKIERDLGNPSISSLRKISRALGVPTAFFFA,-3.07
2,HMATEYIIPTVTNKKLEEAIGIAQLRGFEISVDEYKPSDIDEGTVLEQSPAAGTNAKQGDTISVTVSSG,0.294
3,HMIPLPEDVASMRERLALTPEKADELFGLEDGSFARYEHGEEKVPFVVFQLLWLLGKYPHLIGELR,-0.818
4,HMRIAQYRQIENDLLEQINLGYYKKGDLIPTELELSATYHVSRVTVRKATDNLVAKGILQRVAGVGTFVSR,-1.87
5,HMETLKINTHLGTLNLKKRGKKGTWQINIYFKNIEGDNHYRQSTGTNQLELAKAKAMNMITTEYSNRLAGI,-1.69
6,HMATTPEETILEYINKNNRISKQEIADLMGITRDGVSYHIKKLRKNGLLEWIGSPSNGHWEIIE,0.274
7,HMDNLSESQIKAYSSILSRTHEISDLAENKDYLAFSLWIANILRDPQSVREETAKRVFSALHTNTDFK,-0.945
8,HMVVTMEKIVVNDGGIRIDTYLADKLNISRSKVAKMLENNILVNNVKVKPSYKVTNNDIIEVEEYV,-0.936
9,HMSELIDSLTEAVRSAPDAVPLRLHLAELLLADGQRDRAFAQLGQVLAKDPQNARALEMLGVGS,-0.0386
10,HMSGIGTTIKMLRENKNISQEELGNVLGVSDKTISSWEINRTEPKMGIVQLLADYFGVSTDYLIKG,-0.146
11,HMKHKGILTTWNDDRGFGFITPKEGKEPVFVHISAFARGQGRPVLNASLTYRLVRDDQQRPRAEAVRL,-1.15
12,HMRIEDTMDYINKIKEKLKNNGGVITSKEFTRSNIPTIYLTRMVETGELIRIDRGIYINSSG,-0.538
13,HMHHDDHNQQEEIKEKLLAMVADGERHHVTEVRQLDEDWDMVTKVMKELMDEEQLLMDGSYLILSA,-0.0951
14,HMQSEISRIGRILKERRLQLGYTQEYAAEKAGISYSYYTKIERGQQLPSLEVAMVLSKTFSLSMDRWL,-4.77
15,HMGNEVMYRQDLSEQELLSFIKKYTGQDEVTHIVVGAPKQRDNTPSPVETKITPFVVQLKAQFPDVNVV,0.115
16,HMTMTIEITVNGKTKTLVAELSLADLLRDLGMTKGRIAVELNGHIVPRSQFSSKTISNLDSIEIVQ,-3.23
17,HMQKYSTIIGVIELRQSGIGYRTTKKRYNIGNSTVTLIMNRFHELGLSLEELKAMPPKKVEEAFYPPE,-2.43
18,HMDLANLQNGQTLPLQRDVEVISIPFGKTISLSEDSVVSIMQAKGSSVSVAYEGRLYLIEGSNLDALGLEP,-0.736
19,HMTNKKIILEIFQNSDKPLIVEEISKKMFEKTGKKMILSTIYRNLKNMEDVGILKKIYNEDGSYMYIF,-0.953
20,HMTETSKLTDAKQLLESILSSGEVSYKDIISAAEEYEIGKRTLMSAKALLSIESIKKTDGWYWTLPH,-0.213
21,HMDLPSSETLKVKLNLAKAYVTIEDFGAARRALDEVLSVSSLVDPDLTIQAKSLLAEIDQRS,-0.0514
22,HMFIEMDEPEKILHRILNEANGKLELDKIGYRAEWPIGKVLTVLMSLELKGVVQSHPGKVYSL,-0.154
23,HMQISGSEELEKIVQTVLEKNTDVVEEYKSGKTKVFAFLMGQVMKESRGKANPRLAKDILEKFLA,-0.0362
24,HMRIHKQLGDRIRNLRLSSGMNQEELAFKSGISAAHLGQIERGLKSPTISTIQKIAKALNVTLPILF,-0.298
25,HMSTISPNAFNFLQQNLNKFSDDAEGKMIKDILSKTTYDEYVKNEKSKTDFNSLLRRQTTTGDDNLNRYIN,0.0247
